Experimental data as given in article PMC10104074.

Biological target: globupain zymogen (wild-type, signal-free, C-terminal 6xHis) (unclassified Archaeoglobus species (metagenome, Soria Moria hydrothermal vent field))
Assay: SEC + AUC

globupain zymogen (wild-type, signal-free, C-terminal 6xHis) (enzyme)
stoichiometry N: 2
